Data as given in patent US20200102387A1.
pEC50: −log10 of the molar value. Where two headings read alike, the source gives them in different places.

Assays:
[1] = biological target: mouse SIRPα on cells (mouse) (UniProt P97797); assay: flow cytometry on Mouse SIRPα-CHO-K1 cells
[2] = biological target: FcγR1 (CD64) (human) (UniProt P12314); assay: cell binding, FcγR-engineered HEK293 cells
[3] = biological target: FcγR2A (CD32aH131) (human) (UniProt P12318); assay: cell binding, FcγR-engineered HEK293 cells
FcγR2A (CD32aH131) (human), sequence (P12318 34-317): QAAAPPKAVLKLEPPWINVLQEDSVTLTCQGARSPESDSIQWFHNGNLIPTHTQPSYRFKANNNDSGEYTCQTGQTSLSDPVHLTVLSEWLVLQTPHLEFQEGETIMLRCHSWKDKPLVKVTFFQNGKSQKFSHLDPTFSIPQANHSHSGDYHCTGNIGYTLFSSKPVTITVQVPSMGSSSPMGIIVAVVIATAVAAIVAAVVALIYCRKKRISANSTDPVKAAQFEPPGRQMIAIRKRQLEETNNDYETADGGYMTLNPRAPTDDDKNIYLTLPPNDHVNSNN

[4] = biological target: FcγR2A (CD32aR131) (human) (UniProt P12318); assay: cell binding, FcγR-engineered HEK293 cells
FcγR2A (CD32aR131) (human), sequence (P12318 34-317 H167R): as the sequence (P12318 34-317) above, with H134R counted along it

[5] = biological target: FcγR2B (human) (UniProt P31994); assay: cell binding, FcγR-engineered HEK293 cells
FcγR2B (human), sequence (P31994 43-310): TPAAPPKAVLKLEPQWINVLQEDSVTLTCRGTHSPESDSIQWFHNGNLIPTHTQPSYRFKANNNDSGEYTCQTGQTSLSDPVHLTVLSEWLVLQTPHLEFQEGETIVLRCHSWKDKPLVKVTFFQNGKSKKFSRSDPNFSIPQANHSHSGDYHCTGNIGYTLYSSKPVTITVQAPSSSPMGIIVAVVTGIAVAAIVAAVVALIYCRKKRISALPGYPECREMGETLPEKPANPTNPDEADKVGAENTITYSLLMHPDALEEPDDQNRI

[6] = biological target: FcγR3A (CD16aF158) (human) (UniProt P08637); assay: cell binding, FcγR-engineered HEK293 cells
FcγR3A (CD16aF158) (human), sequence (P08637 17-254): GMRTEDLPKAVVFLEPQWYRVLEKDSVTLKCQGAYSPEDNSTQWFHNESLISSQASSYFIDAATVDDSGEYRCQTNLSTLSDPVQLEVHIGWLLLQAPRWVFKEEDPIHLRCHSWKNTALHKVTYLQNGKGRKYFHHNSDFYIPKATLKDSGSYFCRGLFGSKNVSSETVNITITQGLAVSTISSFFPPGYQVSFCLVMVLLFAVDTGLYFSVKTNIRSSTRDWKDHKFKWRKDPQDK

[7] = biological target: FcγR3A (CD16aV158) (human) (UniProt P08637); assay: cell binding, FcγR-engineered HEK293 cells
FcγR3A (CD16aV158) (human), sequence (P08637 17-254 F176V): as the sequence (P08637 17-254) above, with F160V counted along it

[8] = biological target: FcγR2B (human) (UniProt P31994); assay: cell binding, FcγR-engineered HEK293 cells; remark: listed apart in the source
[9] = biological target: FcγR3A (CD16aV158) (human) (UniProt P08637); assay: cell binding, FcγR-engineered HEK293 cells; remark: listed apart in the source
[10] = biological target: rat SIRPα on CHO-K1 cells (rat) (UniProt P97710); assay: flow cytometry on Rat SIRPα-CHO-K1 cells
rat SIRPα on CHO-K1 cells (rat), sequence (P97710 32-509): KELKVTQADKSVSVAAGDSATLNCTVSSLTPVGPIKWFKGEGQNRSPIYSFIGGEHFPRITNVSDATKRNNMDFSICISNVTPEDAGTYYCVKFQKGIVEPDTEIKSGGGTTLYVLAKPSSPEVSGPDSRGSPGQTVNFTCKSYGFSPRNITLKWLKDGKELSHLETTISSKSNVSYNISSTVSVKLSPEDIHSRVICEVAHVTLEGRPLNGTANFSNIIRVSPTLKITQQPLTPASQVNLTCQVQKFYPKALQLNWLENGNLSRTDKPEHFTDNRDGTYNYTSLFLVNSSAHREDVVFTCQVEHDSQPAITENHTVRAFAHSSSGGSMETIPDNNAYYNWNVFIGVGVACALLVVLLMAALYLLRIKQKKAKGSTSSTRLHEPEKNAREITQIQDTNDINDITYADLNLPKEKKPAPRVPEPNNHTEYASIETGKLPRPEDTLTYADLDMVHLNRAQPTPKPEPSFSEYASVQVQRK

FcγR1 (CD64) (human), sequence (P12314 16-374): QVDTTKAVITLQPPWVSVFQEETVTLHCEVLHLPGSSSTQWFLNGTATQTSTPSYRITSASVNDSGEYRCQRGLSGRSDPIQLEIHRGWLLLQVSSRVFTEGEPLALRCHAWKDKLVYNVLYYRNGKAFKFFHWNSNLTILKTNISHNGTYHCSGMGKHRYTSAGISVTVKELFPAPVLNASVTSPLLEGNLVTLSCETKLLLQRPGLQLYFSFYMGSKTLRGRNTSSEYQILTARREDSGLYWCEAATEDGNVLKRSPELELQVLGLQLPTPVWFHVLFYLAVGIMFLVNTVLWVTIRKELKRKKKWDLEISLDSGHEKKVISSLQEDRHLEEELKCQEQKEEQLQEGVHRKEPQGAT
mouse SIRPα on cells (mouse), sequence (P97797 32-513): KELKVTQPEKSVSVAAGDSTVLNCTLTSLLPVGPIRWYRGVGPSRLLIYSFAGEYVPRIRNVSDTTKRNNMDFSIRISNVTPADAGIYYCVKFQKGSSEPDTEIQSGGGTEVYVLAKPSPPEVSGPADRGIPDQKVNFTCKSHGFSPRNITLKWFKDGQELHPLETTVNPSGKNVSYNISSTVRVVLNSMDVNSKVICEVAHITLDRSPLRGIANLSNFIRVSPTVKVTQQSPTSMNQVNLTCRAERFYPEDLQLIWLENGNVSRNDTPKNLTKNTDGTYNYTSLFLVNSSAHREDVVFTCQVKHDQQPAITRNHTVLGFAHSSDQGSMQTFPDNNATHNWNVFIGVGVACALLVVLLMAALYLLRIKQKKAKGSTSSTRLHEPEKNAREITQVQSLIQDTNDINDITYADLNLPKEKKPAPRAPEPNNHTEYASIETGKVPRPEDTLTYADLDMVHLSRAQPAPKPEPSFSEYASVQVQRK

In the case of anti-mouse-SIRPα antibody P84, the EC50 (read off the curve) [1] was 2 nM.

For Isotype Control-IgG1 (antibody), the pEC50 [2] was 8.93, the pEC50 [3] was 6.86 and the pEC50 [4] was 7.04. The pEC50 [5] was 5.92, the pEC50 [6] was 6.51 and the pEC50 [7] was 6.35. For the same substance, the pEC50 [8] was 5.65 and the pEC50 [9] was 6.90.

In the case of Commercially Available IgG1 (antibody), the pEC50 [2] was 9.08, the pEC50 [3] was 6.44 and the pEC50 [4] was 6.73.

anti-rat-SIRPα antibody OX-41 showed an EC50 (read off the curve) [10] of 2 nM.
